This passage reports transactivation of TKp-luciferase reporters with one to 20 EBNA1-binding sites, 20 sites over a single site, C33a cells results from publication PMC2690687.

The target of this assay is Epstein-Barr Nuclear Antigen 1 (EBNA1), wild type (Epstein-Barr virus) (UniProt P03211).

The substance “Epstein-Barr Nuclear Antigen 1 (EBNA1), wild type (from UniProt P03211 1-641) (natural protein)” registered a transactivation of TKp-luciferase reporters with one to 20 EBNA1-binding sites, 20 sites over a single site, C33a cells of 150 fold.
